Results as given in article PMC9722607 (Structure (London, England : 1993), 2022).
Numbering of substitutions follows the chain as printed. Names may count otherwise.

B1: 6x-His-tagged PqsE (wild type) (enzyme)
chain: MLRLSAPGQLDDDLCLLGDVQVPVFLLRLGEASWALVEGGISRDAELVWADLCRWVADPSQVHYWLITHKHYDHCGLLPYLCPRLPNVQVLASERTCQAWKSESAVRVVERLNRQLLRAEQRLPEACAWDALPVRAVADGEWLELGPRHRLQVIEAHGHSDDHVVFYDVRRRRLFCGDALGEFDEAEGVWRPLVFDDMEAYLESLERLQRLPTLLQLIPGHGGLLRGRLAADGAESAYTECLRLCRRLLWRQSMGESLDELSEELHRAWGGQSVDFLPGELHLGSMRRMLEILSRQALPLD
B2: RhlR (wild type, untagged, bound to mBTL) (natural protein)
chain: MRNDGGFLLWWDGLRSEMQPIHDSQGVFAVLEKEVRRLGFDYYAYGVRHTIPFTRPKTEVHGTYPKAWLERYQMQNYGAVDPAILNGLRSSEMVVWSDSLFDQSRMLWNEARDWGLCVGATLPIRAPNNLLSVLSVARDQQNISSFEREEIRLRLRCMIELLTQKLTDLEHPMLMSNPVCLSHREREILQWTADGKSSGEIAIILSISESTVNFHHKNIQKKFDAPNKTLAAAYAAALGLI
B3: RhlR F53A (natural protein)
chain: B2 chain with F53A
B4: RhlR C157S (natural protein)
chain: B2 chain with C157S

Experiments:
[1] = target: the molecule itself; assay: cryo-EM structure
[2] = target: B1; assay: pull-down

Row | Binder | stoichiometry N [1] | efficacy of binding relative to WT RhlR [2] [%]
1 | B1 | 2 | 
2 | B2 | 2 | 
3 | B3 |  | 50
4 | B4 |  | 70
